Experimental data reported in paper PMC8115157.

Key:
Details in all cases: remark: other sources report otherwise
[1] = molecular target: T1, full-length human calcium-sensing receptor (CaSR) (human), P41180; assay: cryo-EM structure; single-particle cryo-EM of Ca^2+-free CaSR in DDM/CHS, 20 mM HEPES pH 7.5, 150 mM NaCl, 5 mM EGTA, with 10 mM L-Trp (CaSR^Trp); 4.4 Å
T1 chain: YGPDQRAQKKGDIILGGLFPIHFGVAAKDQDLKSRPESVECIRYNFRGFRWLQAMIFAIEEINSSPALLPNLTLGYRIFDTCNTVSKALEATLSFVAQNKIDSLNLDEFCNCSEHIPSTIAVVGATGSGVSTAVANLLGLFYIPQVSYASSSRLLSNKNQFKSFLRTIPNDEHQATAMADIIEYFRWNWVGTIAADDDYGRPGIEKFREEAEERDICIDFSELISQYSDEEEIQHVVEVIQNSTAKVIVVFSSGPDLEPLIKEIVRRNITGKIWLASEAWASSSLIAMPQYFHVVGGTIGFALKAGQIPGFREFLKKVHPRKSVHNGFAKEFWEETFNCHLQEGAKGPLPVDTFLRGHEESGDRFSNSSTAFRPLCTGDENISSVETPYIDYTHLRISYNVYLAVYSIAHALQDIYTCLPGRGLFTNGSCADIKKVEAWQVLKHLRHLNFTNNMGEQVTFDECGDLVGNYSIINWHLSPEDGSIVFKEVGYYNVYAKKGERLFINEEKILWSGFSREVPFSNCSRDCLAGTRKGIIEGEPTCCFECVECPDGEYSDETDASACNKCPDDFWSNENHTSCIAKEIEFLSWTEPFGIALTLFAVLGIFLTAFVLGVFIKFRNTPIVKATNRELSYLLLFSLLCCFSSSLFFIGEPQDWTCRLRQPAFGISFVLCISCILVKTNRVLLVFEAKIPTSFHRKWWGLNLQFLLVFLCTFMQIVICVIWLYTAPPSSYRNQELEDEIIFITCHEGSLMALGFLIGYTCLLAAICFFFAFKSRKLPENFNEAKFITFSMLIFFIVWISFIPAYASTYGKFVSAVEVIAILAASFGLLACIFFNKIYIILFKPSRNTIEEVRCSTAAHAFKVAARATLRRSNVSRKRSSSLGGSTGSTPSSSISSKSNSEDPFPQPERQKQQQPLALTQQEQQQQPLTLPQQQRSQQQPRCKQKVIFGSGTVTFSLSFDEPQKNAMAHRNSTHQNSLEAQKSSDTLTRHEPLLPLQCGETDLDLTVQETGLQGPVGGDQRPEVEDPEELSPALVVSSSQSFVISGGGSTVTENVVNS

[2] = molecular target: T1, full-length human calcium-sensing …; assay: cryo-EM structure; single-particle cryo-EM of CaSR in DDM/CHS, 20 mM HEPES pH 7.5, 150 mM NaCl, with 10 mM L-Trp and 10 mM CaCl2 (active state, CaSR^Acc); 3.5 Å
[3] = molecular target: T1, full-length human calcium-sensing …; assay: cryo-EM structure; single-particle cryo-EM of CaSR in DDM/CHS, 20 mM HEPES pH 7.5, 150 mM NaCl, 5 mM EDTA (inactive state; three classes Icc 4.5 Å, Ioc 5.7 Å, Ioo 6.8 Å)
[4] = molecular target: T1, full-length human calcium-sensing …; assay: cryo-EM structure; single-particle cryo-EM of CaSR in DDM/CHS, 20 mM HEPES pH 7.5, 150 mM NaCl, 20 mM CaCl2 (three classes: closed-closed CaSR^Ca 3.8 Å, open-closed 5.6 Å, open-open 7.3 Å)

Measured: stoichiometry N

B1: full-length human calcium-sensing receptor (CaSR), P41180 20-1078 (receptor)
chain: YGPDQRAQKKGDIILGGLFPIHFGVAAKDQDLKSRPESVECIRYNFRGFRWLQAMIFAIEEINSSPALLPNLTLGYRIFDTCNTVSKALEATLSFVAQNKIDSLNLDEFCNCSEHIPSTIAVVGATGSGVSTAVANLLGLFYIPQVSYASSSRLLSNKNQFKSFLRTIPNDEHQATAMADIIEYFRWNWVGTIAADDDYGRPGIEKFREEAEERDICIDFSELISQYSDEEEIQHVVEVIQNSTAKVIVVFSSGPDLEPLIKEIVRRNITGKIWLASEAWASSSLIAMPQYFHVVGGTIGFALKAGQIPGFREFLKKVHPRKSVHNGFAKEFWEETFNCHLQEGAKGPLPVDTFLRGHEESGDRFSNSSTAFRPLCTGDENISSVETPYIDYTHLRISYNVYLAVYSIAHALQDIYTCLPGRGLFTNGSCADIKKVEAWQVLKHLRHLNFTNNMGEQVTFDECGDLVGNYSIINWHLSPEDGSIVFKEVGYYNVYAKKGERLFINEEKILWSGFSREVPFSNCSRDCLAGTRKGIIEGEPTCCFECVECPDGEYSDETDASACNKCPDDFWSNENHTSCIAKEIEFLSWTEPFGIALTLFAVLGIFLTAFVLGVFIKFRNTPIVKATNRELSYLLLFSLLCCFSSSLFFIGEPQDWTCRLRQPAFGISFVLCISCILVKTNRVLLVFEAKIPTSFHRKWWGLNLQFLLVFLCTFMQIVICVIWLYTAPPSSYRNQELEDEIIFITCHEGSLMALGFLIGYTCLLAAICFFFAFKSRKLPENFNEAKFITFSMLIFFIVWISFIPAYASTYGKFVSAVEVIAILAASFGLLACIFFNKIYIILFKPSRNTIEEVRCSTAAHAFKVAARATLRRSNVSRKRSSSLGGSTGSTPSSSISSKSNSEDPFPQPERQKQQQPLALTQQEQQQQPLTLPQQQRSQQQPRCKQKVIFGSGTVTFSLSFDEPQKNAMAHRNSTHQNSLEAQKSSDTLTRHEPLLPLQCGETDLDLTVQETGLQGPVGGDQRPEVEDPEELSPALVVSSSQSFVISGGGSTVTENVVNS
modifications: here or on the partner: N-linked glycans (N-acetylglucosamine built) at N261, N287, N446, N468, N488 and N541; N-linked glycans (N-acetylglucosamine built) at N261, N287, N446, N468, N488 and N541
2: all assays above
